Patent US20230220589A1
Substitutions are numbered along the chain they refer to.

How the values were obtained:
[1] = target: M44-modified S NTAA target peptides; assay: encoding assay; P2 S
[2] = target: M44-modified E NTAA target peptides; assay: encoding assay; P2 S;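 further: fraction of recording tags encoded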
[3] = target: M44-modified W NTAA target peptides; assay: encoding assay; P2 S;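 further: fraction of recording tags encoded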
[4] = target: M44-modified D NTAA target peptides; assay: encoding assay; P2 S;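 further: fraction of recording tags encoded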
[5] = target: M44-modified N NTAA target peptides; assay: encoding assay; P2 S
[6] = target: M44-modified S NTAA target peptides; assay: encoding assay; P2 A
[7] = target: M44-modified P NTAA target peptides; assay: encoding assay; P2 A;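 further: fraction of recording tags encoded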
[8] = target: M44-modified T NTAA target peptides; assay: encoding assay; P2 A;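 further: fraction of recording tags encoded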
[9] = target: M44-modified E NTAA target peptides; assay: encoding assay; P2 A;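 further: fraction of recording tags encoded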
[10] = target: M44-modified D NTAA target peptides; assay: encoding assay; P2 A;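 further: fraction of recording tags encoded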
[11] = target: M44-modified S NTAA target peptides; assay: encoding assay; P2 M
[12] = target: M44-modified G NTAA target peptides (M44-G-P2-peptide); assay: encoding assay; P2 M;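 further: fraction of recording tags encoded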
[13] = target: M44-modified H NTAA target peptides; assay: encoding assay; P2 M;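 further: fraction of recording tags encoded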
[14] = target: M17-modified P NTAA target peptides; assay: encoding assay; P2 P;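 further: fraction of recording tags encoded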
[15] = target: M17-modified E NTAA target peptides; assay: encoding assay; P2 P;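 further: fraction of recording tags encoded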
[16] = target: M17-modified Y NTAA target peptides (M17-Y-P2-peptide); assay: encoding assay; P2 P;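 further: fraction of recording tags encoded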
[17] = target: M17-modified H NTAA target peptides; assay: encoding assay; P2 P;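 further: fraction of recording tags encoded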
[18] = target: M17-modified I NTAA target peptides; assay: encoding assay; P2 S;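 further: fraction of recording tags encoded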
[19] = target: M17-modified S NTAA target peptides; assay: encoding assay; P2 S;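 further: fraction of recording tags encoded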
[20] = target: M17-modified F NTAA target peptides; assay: encoding assay; P2 S;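 further: fraction of recording tags encoded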
[21] = target: M17-modified G NTAA target peptides; assay: encoding assay; P2 S;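 further: fraction of recording tags encoded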
[22] = target: M17-modified T NTAA target peptides; assay: encoding assay; P2 S;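 further: fraction of recording tags encoded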
[23] = target: M17-modified L NTAA target peptides; assay: encoding assay; P2 S;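 further: fraction of recording tags encoded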
[24] = target: M17-modified P NTAA target peptides; assay: encoding assay; P2 S;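 further: fraction of recording tags encoded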
[25] = target: M17-modified D NTAA target peptides; assay: encoding assay; P2 S;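 further: fraction of recording tags encoded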
[26] = target: M17-modified Q NTAA target peptides; assay: encoding assay; P2 S;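 further: fraction of recording tags encoded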
[27] = target: M17-modified A NTAA target peptides; assay: encoding assay; P2 S;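 further: fraction of recording tags encoded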
[28] = target: M17-modified V NTAA target peptides; assay: encoding assay; P2 S;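 further: fraction of recording tags encoded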
[29] = target: M17-modified E NTAA target peptides; assay: encoding assay; P2 S;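 further: fraction of recording tags encoded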
[30] = target: M17-modified M NTAA target peptides; assay: encoding assay; P2 S;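 further: fraction of recording tags encoded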
[31] = target: M17-modified Y NTAA target peptides (M17-Y-P2-peptide); assay: encoding assay; P2 S;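 further: fraction of recording tags encoded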
[32] = target: M17-modified N NTAA target peptides; assay: encoding assay; P2 S;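 further: fraction of recording tags encoded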
[33] = target: M17-modified H NTAA target peptides; assay: encoding assay; P2 S;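 further: fraction of recording tags encoded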
[34] = target: M17-modified I NTAA target peptides; assay: encoding assay; P2 A;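 further: fraction of recording tags encoded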
[35] = target: M17-modified F NTAA target peptides; assay: encoding assay; P2 A;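 further: fraction of recording tags encoded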
[36] = target: M17-modified G NTAA target peptides; assay: encoding assay; P2 A;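 further: fraction of recording tags encoded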
[37] = target: M17-modified T NTAA target peptides; assay: encoding assay; P2 A;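 further: fraction of recording tags encoded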
[38] = target: M17-modified L NTAA target peptides; assay: encoding assay; P2 A;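 further: fraction of recording tags encoded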
[39] = target: M17-modified W NTAA target peptides; assay: encoding assay; P2 A;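 further: fraction of recording tags encoded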
[40] = target: M17-modified P NTAA target peptides; assay: encoding assay; P2 A;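 further: fraction of recording tags encoded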
[41] = target: M17-modified D NTAA target peptides; assay: encoding assay; P2 A;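 further: fraction of recording tags encoded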
[42] = target: M17-modified Q NTAA target peptides; assay: encoding assay; P2 A;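 further: fraction of recording tags encoded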
[43] = target: M17-modified A NTAA target peptides; assay: encoding assay; P2 A;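 further: fraction of recording tags encoded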
[44] = target: M17-modified V NTAA target peptides; assay: encoding assay; P2 A;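 further: fraction of recording tags encoded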
[45] = target: M17-modified E NTAA target peptides; assay: encoding assay; P2 A;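 further: fraction of recording tags encoded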
[46] = target: M17-modified M NTAA target peptides; assay: encoding assay; P2 A;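 further: fraction of recording tags encoded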
[47] = target: M17-modified Y NTAA target peptides (M17-Y-P2-peptide); assay: encoding assay; P2 A;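 further: fraction of recording tags encoded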
[48] = target: M17-modified N NTAA target peptides; assay: encoding assay; P2 A;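 further: fraction of recording tags encoded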
[49] = target: M17-modified H NTAA target peptides; assay: encoding assay; P2 A;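 further: fraction of recording tags encoded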
[50] = target: M17-modified G NTAA target peptides; assay: encoding assay; P2 M;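 further: fraction of recording tags encoded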
[51] = target: M17-modified T NTAA target peptides; assay: encoding assay; P2 M;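 further: fraction of recording tags encoded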
[52] = target: M17-modified M NTAA target peptides; assay: encoding assay; P2 M;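 further: fraction of recording tags encoded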
[53] = target: M17-modified Y NTAA target peptides (M17-Y-P2-peptide); assay: encoding assay; P2 M;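 further: fraction of recording tags encoded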
[54] = target: M17-modified N NTAA target peptides; assay: encoding assay; P2 M;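 further: fraction of recording tags encoded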

Measured: encoding yield

B1: engineered M44-L binder (SEQ ID NO: 31) (designed binder, not shown: small tags and cut ends; large carriers)
chain: QDSTQNLIPAPPLISVPLQPGFWTERFQGRWFLVGFAGNAVQKERQSRLTMQSLILELQEDNSYNITAINVRGQGCRYIISTLVPSSRPGQFTLGNIHSYPQIQSLDVQVADTDYDQFAMVFLQGTSENKQYFEVALAGRTKGLSDELKERFVSFAKSLGLKDNNIVFSVPTDQCIDN
0.02: [4] | [9] | [10]
0.01: [1] | [2] | [3] | [5] | [6] | [7] | [8] | [11] | [12] | [13]

B2: engineered M17-Y binder (SEQ ID NO: 61) (designed binder, not shown: small tags and cut ends; large carriers)
chain: TVPDRSEIAGKWYVVALASNTEFYLREKDWVKSAMARISFLGEDELKVSSAVPSPNGCYKVERTWKKTSDDGEVYNSRAAKLKVEVLDTDYKSYAVIYATRVKDGRTDHQMILYSRSPEVSPAATAIFRKLAGERNYTDEMVAMLPRQEECTVDEV
0.12: [47]
0.01: [14] | [19] | [24] | [25] | [26] | [29] | [37] | [40] | [41] | [44] | [45] | [50] | [52]
0.03: [17] | [18] | [21]
0.16: [16]
0.04: [20] | [30] | [35] | [39] | [51]
0.1: [31] | [53]
not listed: [1] | [2] | [3] | [4] | [5] | [6] | [7] | [8] | [9] | [10] | [11] | [12] | [13]
0.02: all other assays above

B3: upgraded binder after additional maturation round (SEQ ID NO: 62) (designed binder, not shown: small tags and cut ends; large carriers)
chain: B2 chain with E27G, W30R, A36V, L41Q, G105R, E119D
0.05: [18] | [51]
0.09: [35]
0.23: [53]
0.07: [20]
0.02: [15] | [24] | [25] | [26] | [27] | [32] | [41] | [42] | [43] | [44] | [45] | [49] | [50] | [52] | [54]
0.24: [47]
0.28: [16]
0.04: [17] | [21] | [22] | [23] | [30] | [38]
0.01: [14] | [19] | [29] | [37] | [40]
0.08: [39]
0.22: [31]
0.03: [28] | [33] | [34] | [36] | [46] | [48]

B4: engineered M44-A binder (SEQ ID NO: 42) (designed binder, not shown: small tags and cut ends; large carriers)
chain: QVSVQPNFQQDKFLGRWFVAGLASNSSWDREKVAALSGAKMVVAPATDGGLNVTRTMLRKNQCETYTGLLQPAGSLGSYSWRSPHPGSTGSESVVETDYDQYALVYGQGSKGPGEDLRAAALWSRTQTPRAELKEKFTAFSKAQGFTEDTIVFLPQTDKCMTEQ
0.02: [4] | [9] | [10]
0.04: [11] | [12]
0.01: [1] | [2] | [3] | [5] | [6] | [7] | [8] | [13]
